From patent US20260250421A1 (BIOCYTOGEN PHARMACEUTICALS BEIJING, published 2026)

Legend:
[1] = molecular target: T1, His-tagged human PTK7 protein (human, UniProt Q13308 31-704); assay: SPR Biacore 8K, Ab on Protein A chip
T1 construct: Bought protein; also called hPTK7-His; not shown: His tag
T1 sequence: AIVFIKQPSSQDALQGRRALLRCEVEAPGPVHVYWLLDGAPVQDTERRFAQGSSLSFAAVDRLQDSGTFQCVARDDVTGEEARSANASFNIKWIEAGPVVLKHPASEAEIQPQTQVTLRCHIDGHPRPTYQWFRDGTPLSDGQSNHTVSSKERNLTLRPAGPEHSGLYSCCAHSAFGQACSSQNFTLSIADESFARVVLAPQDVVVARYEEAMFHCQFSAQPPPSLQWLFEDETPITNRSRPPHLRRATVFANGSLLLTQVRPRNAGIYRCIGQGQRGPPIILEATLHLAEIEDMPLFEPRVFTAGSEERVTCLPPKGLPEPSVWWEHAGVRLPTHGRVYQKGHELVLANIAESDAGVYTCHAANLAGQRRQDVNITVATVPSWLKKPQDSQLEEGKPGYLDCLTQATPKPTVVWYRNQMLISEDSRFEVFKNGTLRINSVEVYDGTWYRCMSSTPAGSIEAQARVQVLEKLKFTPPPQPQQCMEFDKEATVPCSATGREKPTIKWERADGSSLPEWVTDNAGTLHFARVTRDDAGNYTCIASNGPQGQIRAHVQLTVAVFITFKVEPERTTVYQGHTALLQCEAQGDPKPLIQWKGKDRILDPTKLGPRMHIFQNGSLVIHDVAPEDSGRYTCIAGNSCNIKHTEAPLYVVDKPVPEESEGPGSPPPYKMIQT
Description: The affinity of the anti-PTK7/TROP2 bispecific antibodies to His-tagged human TROP2 protein (hTROP2-His, ACRO Biosystems Inc., Cat #: TR2-H5223), His-tagged […] monkey TROP2 protein (cTROP2-His, ACRO Biosystems Inc., Cat #: Cat: TR2-R52H3), His-tagged dog TROP2 protein (dTROP2-His, ACRO Biosystems Inc., Cat #: TR2-C52H4), hPTK7-His, cPTK7-His and dPTK7-His were measured by surface plasmon resonance (SPR) using Biacore™ (Biacore, INC, Piscataway N.J.) 8K biosensor equipped with pre-immobilized Protein A sensor chips.

[2] = molecular target: T2, human PTK7 on human cancer cell lines (human, UniProt Q13308 31-1070); assay: flow cytometry on NCI-H1975 cells co-expressing PTK7 and TROP2; the single curve of the bispecific is not resolved between the two targets; anti-hIgG-Fc Alexa Fluor 647 secondary antibody, MFI [A]
T2 construct: Endogenous PTK7 of human tumour cell lines; also called PTK7 on A-431, NCI-H520, NCI-N87, SK-OV-3, BT-20, HCC1954, NCI-H226, NCI-H358, HCT116, PC-3, NCI-H292, NCI-H1975 cells
T2 sequence: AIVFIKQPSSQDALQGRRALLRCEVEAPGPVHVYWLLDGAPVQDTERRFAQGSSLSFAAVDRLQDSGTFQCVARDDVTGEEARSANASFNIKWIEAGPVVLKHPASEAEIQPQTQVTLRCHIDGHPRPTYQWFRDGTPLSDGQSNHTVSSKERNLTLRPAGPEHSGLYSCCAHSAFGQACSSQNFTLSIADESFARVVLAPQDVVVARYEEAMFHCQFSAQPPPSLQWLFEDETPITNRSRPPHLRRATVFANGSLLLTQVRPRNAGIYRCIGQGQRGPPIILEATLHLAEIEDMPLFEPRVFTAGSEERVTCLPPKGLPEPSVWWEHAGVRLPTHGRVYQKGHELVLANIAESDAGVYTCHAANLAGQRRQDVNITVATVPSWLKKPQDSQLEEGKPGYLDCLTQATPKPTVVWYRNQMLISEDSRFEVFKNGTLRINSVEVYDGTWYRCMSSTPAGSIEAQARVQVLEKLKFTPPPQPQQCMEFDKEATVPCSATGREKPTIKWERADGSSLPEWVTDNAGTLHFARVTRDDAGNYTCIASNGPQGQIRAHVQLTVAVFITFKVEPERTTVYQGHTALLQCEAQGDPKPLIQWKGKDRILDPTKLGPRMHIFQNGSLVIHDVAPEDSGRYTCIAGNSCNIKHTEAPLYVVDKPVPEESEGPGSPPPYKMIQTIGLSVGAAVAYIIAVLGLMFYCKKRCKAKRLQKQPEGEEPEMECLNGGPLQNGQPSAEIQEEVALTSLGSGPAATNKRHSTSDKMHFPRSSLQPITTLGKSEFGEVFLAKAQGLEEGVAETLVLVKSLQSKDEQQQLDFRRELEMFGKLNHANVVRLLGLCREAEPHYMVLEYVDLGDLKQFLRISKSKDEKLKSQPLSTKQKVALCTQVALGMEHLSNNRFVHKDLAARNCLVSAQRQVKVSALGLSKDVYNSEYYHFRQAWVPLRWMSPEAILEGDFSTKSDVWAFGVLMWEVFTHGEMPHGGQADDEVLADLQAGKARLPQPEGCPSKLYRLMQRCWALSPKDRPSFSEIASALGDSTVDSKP
Description: (§1) This experiment was performed to test the binding activities of the anti-PTK7/TROP2 bispecific antibodies to different tumor cell lines. NCI-H1975 cells or NUGC-4 cells were transferred to a 96-well plate at a density of 5×10⁴ cells/well respectively. The sample antibody was added to the 96-well plate, and incubated at 4° C. for 30 min.

[3] = molecular target: T3, TROP2 on NCI-H1975 and NUGC-4 tumor cells (UniProt P09758 27-323, limits assumed); assay: as above
T3 construct: whole, on cells; species of the lines is not worded there; also called TROP2 on cells
T3 sequence (looked up): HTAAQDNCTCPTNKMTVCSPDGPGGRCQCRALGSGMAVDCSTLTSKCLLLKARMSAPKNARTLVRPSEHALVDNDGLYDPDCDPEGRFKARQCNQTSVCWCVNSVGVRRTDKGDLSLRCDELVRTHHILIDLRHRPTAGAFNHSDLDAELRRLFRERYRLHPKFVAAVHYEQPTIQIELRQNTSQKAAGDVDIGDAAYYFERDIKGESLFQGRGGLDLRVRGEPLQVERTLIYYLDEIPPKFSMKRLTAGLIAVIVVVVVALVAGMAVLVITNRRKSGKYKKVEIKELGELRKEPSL
Description: as §1

B1: 3C4-18E9 (bispecific antibody, human IgG1, V domains shown)
VH 1: QVQLEQSRAEVKKPGESLRISCKGSGYSFTSYWISWVRQMPGKGLEWMGRIDPSDSYTNYNPSFQGHVTISADKSISTAYLQWSSLKASDTAMYYCARRDGSYFDFDYWGQGTLVTVSS
VH 2: QLQLQQSGPGLLKPSETLSLTCTVSGGSISSSYYFWGWIRQPPGKGLEWIGAIYYIGNTHYNPSLKSRVTISIDTSKNQFSLNLNSVTAADTAIYYCARYEDTWNWFDPWGQGTLVTVSS
VL: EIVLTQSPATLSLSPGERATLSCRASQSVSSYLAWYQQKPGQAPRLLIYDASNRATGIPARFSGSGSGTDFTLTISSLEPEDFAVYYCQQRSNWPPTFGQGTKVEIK
notes: which arm carries the knob is stated only for 3C4-6F7; also called anti-PTK7/TROP2 bispecific antibody 3C4-18E9
Kd [1]: 9.79 nM | koff [1]: 0.00125 s⁻¹ | kon [1]: 128000 M⁻¹ s⁻¹ | EC50 (read off the curve) [2]: ~0.7 µg/mL | EC50 (read off the curve) [3]: ~0.7 µg/mL
